These results are taken from patent US10314894B2, “Treatment of cardio-renal disease using PCSK6” (THE CLEVELAND CLINIC FOUNDATION, priority 2014, dated 2019).

Assay [1] concerns the target T1, corin mutant R539C (Homo sapiens, UniProt Q9Y5Q5, R539C).
T1 construct: expressed in transfected cells; host or cells: HEK293
T1 sequence (Q9Y5Q5 1-1042 R539C): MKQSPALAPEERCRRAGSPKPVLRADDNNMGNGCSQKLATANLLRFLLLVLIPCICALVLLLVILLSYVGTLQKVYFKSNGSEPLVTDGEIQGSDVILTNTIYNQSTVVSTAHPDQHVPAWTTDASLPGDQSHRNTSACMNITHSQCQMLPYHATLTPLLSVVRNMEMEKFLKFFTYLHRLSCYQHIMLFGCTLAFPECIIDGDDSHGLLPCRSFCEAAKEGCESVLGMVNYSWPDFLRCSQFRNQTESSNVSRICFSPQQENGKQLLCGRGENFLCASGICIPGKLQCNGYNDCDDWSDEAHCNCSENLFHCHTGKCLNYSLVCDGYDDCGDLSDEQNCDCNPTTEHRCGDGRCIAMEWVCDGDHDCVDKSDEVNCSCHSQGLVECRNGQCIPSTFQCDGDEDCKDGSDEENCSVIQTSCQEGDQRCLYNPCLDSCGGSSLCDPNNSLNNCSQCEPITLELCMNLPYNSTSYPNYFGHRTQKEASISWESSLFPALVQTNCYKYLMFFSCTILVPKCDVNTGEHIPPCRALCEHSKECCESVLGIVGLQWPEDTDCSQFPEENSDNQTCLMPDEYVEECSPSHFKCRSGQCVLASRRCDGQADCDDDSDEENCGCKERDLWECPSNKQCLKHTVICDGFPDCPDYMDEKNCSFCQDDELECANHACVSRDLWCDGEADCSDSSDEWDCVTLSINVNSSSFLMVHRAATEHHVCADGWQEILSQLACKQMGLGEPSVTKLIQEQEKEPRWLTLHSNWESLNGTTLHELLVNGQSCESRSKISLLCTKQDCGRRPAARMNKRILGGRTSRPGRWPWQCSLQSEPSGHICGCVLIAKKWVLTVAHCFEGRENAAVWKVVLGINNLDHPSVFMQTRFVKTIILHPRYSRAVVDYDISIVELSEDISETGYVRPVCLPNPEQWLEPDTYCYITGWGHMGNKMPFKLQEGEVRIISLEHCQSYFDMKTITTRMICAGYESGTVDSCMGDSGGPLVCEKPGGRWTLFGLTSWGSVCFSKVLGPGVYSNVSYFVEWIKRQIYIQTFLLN
The assay can be described thus: PCSK6-mediated corin activation in HEK293 cells, corin mutant R539C. Conditions: Western, densitometry. It counts as cell-based. An excerpt:
(§1) Plasmids expressing human corin WT and mutants R801A, S985A, T555I, Q568P, T555I/Q568P, K317E, S472G and R539C were reported previously. Dong, N. et al., J Biol Chem 289, 17909-17916 (2014); Knappe et al., J Biol Chem 278, 52363-52370 (2003); Wu et al., J Biol Chem 277, 16900-16905. (2002). Plasmids expressing human PCSK1-9 were made by cloning respective cDNAs into pcNDA3.1 vector. Recombinant corin and PCSK proteins encoded by these plasmids contained a C-terminal V5 or flag tag for protein detection in Western blotting.
(§2) HEK293 and HL-1 cells were transfected with corin or PCSK6 expression plasmids. After 48-72 h, cells were lysed in a buffer containing 25 mM Tris-HCl, pH 7.4, 150 mM NaCl, 1 mM EDTA, 1% (v/v) NP-40, and 1% (v/v) protease inhibitor cocktail. Recombinant corin and PCSK6 proteins were immunoprecipitated with an anti-V5 or anti-flag antibody. Western blotting was carried out to analyze corin expression and activation or PCSK6 expression with or without reducing agents. Percentage of corin activation (corin-p vs. corin fragments) was quantified by densitometric analysis of Western blots.

Assay [2] addresses T2, corin variant T555I/Q568P (Homo sapiens, UniProt Q9Y5Q5, Q568P/T555I).
T2 construct: expressed in transfected cells; host or cells: HEK293
T2 sequence (Q9Y5Q5 1-1042 T555I/Q568P): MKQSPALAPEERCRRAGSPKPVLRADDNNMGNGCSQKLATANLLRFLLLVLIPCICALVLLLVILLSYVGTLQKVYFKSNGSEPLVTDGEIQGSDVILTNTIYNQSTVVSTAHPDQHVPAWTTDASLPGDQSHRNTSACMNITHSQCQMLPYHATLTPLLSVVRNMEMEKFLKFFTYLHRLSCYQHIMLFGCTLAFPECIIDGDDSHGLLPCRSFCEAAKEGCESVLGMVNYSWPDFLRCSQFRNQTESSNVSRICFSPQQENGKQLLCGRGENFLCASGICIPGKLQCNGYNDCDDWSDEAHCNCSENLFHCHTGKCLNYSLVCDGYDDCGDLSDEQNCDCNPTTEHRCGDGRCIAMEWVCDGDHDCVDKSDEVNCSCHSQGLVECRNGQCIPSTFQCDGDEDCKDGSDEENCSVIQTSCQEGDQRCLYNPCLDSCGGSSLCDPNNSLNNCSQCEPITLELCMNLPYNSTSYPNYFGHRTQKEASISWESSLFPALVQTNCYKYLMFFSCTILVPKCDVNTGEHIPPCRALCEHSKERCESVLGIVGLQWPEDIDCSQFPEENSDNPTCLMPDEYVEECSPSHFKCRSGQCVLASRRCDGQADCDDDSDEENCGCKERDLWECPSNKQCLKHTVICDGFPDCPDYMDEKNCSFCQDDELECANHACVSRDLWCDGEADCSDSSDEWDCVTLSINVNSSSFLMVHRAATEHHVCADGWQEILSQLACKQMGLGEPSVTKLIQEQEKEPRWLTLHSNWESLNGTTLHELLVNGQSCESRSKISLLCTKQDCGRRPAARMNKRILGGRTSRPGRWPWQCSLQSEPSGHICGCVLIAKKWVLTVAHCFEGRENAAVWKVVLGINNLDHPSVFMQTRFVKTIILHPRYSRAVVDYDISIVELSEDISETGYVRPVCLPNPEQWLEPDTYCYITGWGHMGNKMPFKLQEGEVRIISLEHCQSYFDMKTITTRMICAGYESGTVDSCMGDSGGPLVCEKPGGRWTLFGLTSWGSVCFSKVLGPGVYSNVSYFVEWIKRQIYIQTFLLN
Briefly: PCSK6-mediated corin activation in HEK293 cells, corin variant T555I/Q568P. It counts as cell-based. Particulars: corin T555I/Q568P mutant, Western, densitometry.
Description: as §1, §2

B1: proprotein convertase subtilisin/kexin-6 (protein, listed as Homo sapiens)
chain: MPPRAPPAPGPRPPPRAAAATDTAAGAGGAGGAGGAGGPGFRPLAPRPWRWLLLLALPAACSAPPPRPVYTNHWAVQVLGGPAEADRVAAAHGYLNLGQIGNLEDYYHFYHSKTFKRSTLSSRGPHTFLRMDPQVKWLQQQEVKRRVKRQVRSDPQALYFNDPIWSNMWYLHCGDKNSRCRSEMNVQAAWKRGYTGKNVVVTILDDGIERNHPDLAPNYDSYASYDVNGNDYDPSPRYDASNENKHGTRCAGEVAASANNSYCIVGIAYNAKIGGIRMLDGDVTDVVEAKSLGIRPNYIDIYSASWGPDDDGKTVDGPGRLAKQAFEYGIKKGRQGLGSIFVWASGNGGREGDYCSCDGYTNSIYTISVSSATENGYKPWYLEECASTLATTYSSGAFYERKIVTTDLRQRCTDGHTGTSVSAPMVAGIIALALEANSQLTWRDVQHLLVKTSRPAHLKASDWKVNGAGHKVSHFYGFGLVDAEALVVEAKKWTAVPSQHMCVAASDKRPRSIPLVQVLRTTALTSACAEHSDQRVVYLEHVVVRTSISHPRRGDLQIYLVSPSGTKSQLLAKRLLDLSNEGFTNWEFMTVHCWGEKAEGQWTLEIQDLPSQVRNPEKQGKLKEWSLILYGTAEHPYHTFSAHQSRSRMLELSAPELEPPKAALSPSQVEVPEDEEDYTAQSTPGSANILQTSVCHPECGDKGCDGPNADQCLNCVHFSLGSVKTSRKCVSVCPLGYFGDTAARRCRRCHKGCETCSSRAATQCLSCRRGFYHHQEMNTCVTLCPAGFYADESQKNCLKCHPSCKKCVDEPEKCTVCKEGFSLARGSCIPDCEPGTYFDSELIRCGECHHTCGTCVGPGREECIHCAKNFHFHDWKCVPACGEGFYPEEMPGLPHKVCRRCDENCLSCAGSSRNCSRCKTGFTQLGTSCITNHTCSNADETFCEMVKSNRLCERKLFIQFCCRTCLLAG
modifications: C-terminal FLAG tag
Consider B1, for which the “reduction in PCSK6-mediated corin activation compared with WT corin” value in assay [1] stood at 62%. The “PCSK6-mediated corin activation, reduction vs. WT (in words)” value in assay [2] is reported as “markedly reduced”.
